Measurements as given in US20090196877A1.

Target: SIINFEKL/H-2 Kb (mouse) (UniProt P01901)

## OT-1 T cell Receptor (TCR) of OT-1 TCR transgenic T cells
  expression of the cell surface markers CD44, CD69 and CD25 on OT-1 cells after stimulation with irradiated CD80/EG7: 100%
